The test deals with T1, covalently-linked trimer of an N-terminal truncated ClpX variant (ClpX-ΔN3) (E. coli, UniProt A7ZIJ6 62-424).
T1 construct: About 30-100 nM was present in the trans solution with ATP; also called synthetically designed trimer of ClpX subunits expressed as a single chain
Kind of test: nanopore ionic current recording; substrate cis, ClpX/ATP trans.

B1: substrate protein S1 (single N-terminal Smt3 domain, 65-amino-acid charged flexible tail, C-terminal 11 amino acid ssrA tag) (other)
chain: MGSSHHHHHHGSGLVPRGSASMSDSEVNQEAKPEVKPEVKPETHINLKVSDGSSEIFFKIKKTTPLRRLMEAFAKRQGKEMDSLRFLYDGIRIQADQTPEDLDMEDNDIIEAHREQIGGGGSSGGSGGSGSSGDGGSSGGSGGSGSSGDGGSSGGSGGDGSSGDGGSDGDSDGSDGDGDSDGDDAANDENYALAA
notes: Engineered fusion expressed in E. coli BL21 (DE3)*; About 1-2 uM was added to the cis well; also called engineered Smt3 protein
As for B1, the binding result is given as “binds”.

(Values after patent US20220396758A1 (University of California, published 2022).)
